Numbering of substitutions follows the chain as printed.
T1: human CD25 (human, UniProt P01589 22-272)
T1 construct: whole, on cells; Always presented on cells; also called huCD25; IL2Rα
T1 sequence (looked up): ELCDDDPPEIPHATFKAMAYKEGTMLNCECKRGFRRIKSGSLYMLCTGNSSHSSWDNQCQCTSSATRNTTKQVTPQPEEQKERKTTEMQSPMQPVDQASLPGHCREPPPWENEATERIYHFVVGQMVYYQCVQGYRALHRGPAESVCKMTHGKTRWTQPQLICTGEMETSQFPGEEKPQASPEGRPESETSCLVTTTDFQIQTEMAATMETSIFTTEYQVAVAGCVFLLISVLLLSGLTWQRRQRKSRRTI

T2: cynomolgus monkey CD25 (cynomolgus monkey, UniProt H6WS54 22-272)
T2 construct: whole, on cells; also called cynoCD25
T2 sequence: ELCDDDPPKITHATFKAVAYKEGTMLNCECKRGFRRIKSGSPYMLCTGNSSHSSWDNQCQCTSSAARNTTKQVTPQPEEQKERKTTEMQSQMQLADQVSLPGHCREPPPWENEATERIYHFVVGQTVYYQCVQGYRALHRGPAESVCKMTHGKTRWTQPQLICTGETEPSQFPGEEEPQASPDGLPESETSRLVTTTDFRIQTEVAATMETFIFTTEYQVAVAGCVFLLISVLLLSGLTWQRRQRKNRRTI

B1: PR005436 (antibody, human IgG1, kappa, V domains shown)
VH: QVQLQGSGPGLVKPSGTLSLTCAVSDGSISSSNWWNWVRQPPGKGLEWIGEIYHRGSTNYNPSLKSRVTISVDKSKNQFSLKLSSVTAADTAVYYCTHYYYDSSGYYYGYWGQGTLVTVSS
VL: DIVMTQSPLSLPVTPGEPASISCRSSQSLLHRDGYNYVDWYLQKPGQSPQLLIYLGSNRASGVPDRFSGSGSGTDFTLKISRVEAEDVGVYYCMQALQTPLTFGGGTKVEIKR
notes: Fully human recombinant IgG1, kappa; also called 310D11F6
B2: PR005433 (antibody, human IgG1, kappa, V domains shown)
VH: EVQLLESGGGLVQPGGSLRLSCAASGFTFSSYAMSWVRQAPGKGLEWVSTLSGRGGSTYYADSVKGRFTISRDNSNNTLYLQMNSLRAEDTAVYYCAKEGYSSSYYEYFQHWGQGTLVTVSS
VL: EIVLTQSPATLSVSPGERATLSCRASQSISSNLAWYQQKPGQAPRLLIYGASTRATGIPARFSGSGSGTEFTLTISSLQSEDFAVYSCQQYNYWPLTFGGGTKVEIKR
notes: Fully human recombinant IgG1, kappa; Clone No. 308B6F9 is printed for both PR005433 and PR005435; also called 308B6F9
B3: PR005435 (antibody, human IgG1, kappa, V domains shown)
VH: QVQLQQSGPGLVKPSQTLSLTCAVSGDRVSNINAAWNWIRQSPSRGLEWLGRTYYRSKWYNDYAVSVKSRISINLDTSKDQFSLQLNPVTPEDTAVYYCARDPWEAFDYWGQGTLVTVSS
VL: B2 VL with L4M, I29V, G50A, S87F, Y93D, P95S, L96I, G100Q, K103R, V104L
notes: as for B2
B4: PR006122 (antibody, human IgG1, kappa, V domains shown)
VH: QVQLVESGGGVVQPGRSLRLSCAASGFTFSSYYMHWVRQAPGKGLEWVAVIWYDGSNKYYADSVKGRFTISRDNSKNTLYLQMNSLRAEDTAVYYCAGAGKGELPFDYWGQGTLVTVSS
VL: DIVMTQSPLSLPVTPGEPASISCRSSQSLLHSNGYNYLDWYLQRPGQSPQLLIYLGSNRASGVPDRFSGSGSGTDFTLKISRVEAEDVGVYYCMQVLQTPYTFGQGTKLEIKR
notes: Fully human recombinant IgG1, kappa; also called 189F2G11
B5: PR006927 (antibody, human IgG1, kappa, V domains shown)
VH: QVQLQESGPGLVKPSETLSLTCTVSGGSIRSYYWSWIRQPPGKGLEWIGYIYYSGSTNYNPSLKSRVTISVDTSKNQFSLKLSSVTAADTAVYYCARDILTGYSDWFFDLWGRGTLVTVSS
VL: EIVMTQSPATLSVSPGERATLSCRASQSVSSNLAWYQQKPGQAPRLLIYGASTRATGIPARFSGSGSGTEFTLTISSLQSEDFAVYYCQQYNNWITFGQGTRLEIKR
notes: Fully human recombinant IgG1, kappa; also called 113D5A1
B6: PR006931 (antibody, human IgG1, kappa, V domains shown)
VH: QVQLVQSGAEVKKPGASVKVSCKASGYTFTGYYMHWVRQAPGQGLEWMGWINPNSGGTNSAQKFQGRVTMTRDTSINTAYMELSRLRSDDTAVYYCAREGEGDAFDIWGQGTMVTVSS
VL: DFQMTQSPSTLSASVGDRVTITCRASQSISSWLAWYQQKPGKAPKLLIYEASSLKSGVPSRFSGSESGTEFTLTISSLQPDDFATYYCHQYNSYSTFGQGTKVEIKR
notes: Fully human recombinant IgG1, kappa; also called 171B2D12
B7: PR006932 (antibody, human IgG1, kappa, V domains shown)
VH: QVQLVQSGAEVKKPGASLKVSCKASGYTFTGYYMHWVRQAPGQGLEWMGWINSNSGDKRYAQKFQGRVTVTRDTSISTAYMELSRLRSDDTAVYYCAREGAGDAFDFWGQGTMVIVSS
VL: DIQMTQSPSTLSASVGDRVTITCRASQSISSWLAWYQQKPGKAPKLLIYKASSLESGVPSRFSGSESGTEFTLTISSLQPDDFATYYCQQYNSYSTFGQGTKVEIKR
notes: Fully human recombinant IgG1, kappa; also called 184B11A4
B8: PR006930 (antibody, human IgG1, kappa, V domains shown)
VH: B2 VH with G26E, L51I, R54S, S57N, K65E, N76K, G100A, Y105W
VL: B2 VL with L4M, I29V, S31D, N32T, S87Y, K107R
notes: Fully human recombinant IgG1, kappa; also called 170H1E12

Molecular target: T1, human CD25
Experiment: flow cytometry, CHOK1-huCD25 cells
Protocol: (§1) Briefly, the CHOK1-huCD25 cells and HEK293-cynoCD25 cells were digested, the SU-DHL-1 cells, Karpas299 cells, Treg cells and Teff cells were collected, and the cells were resuspended in PBS containing 2% BSA. The cells were adjusted to a cell density of 1×10⁶ cells/mL, respectively. […] The cells were incubated at 4° C. for 1 hour in the dark. After the incubation, the cells were rinsed twice by adding pre-chilled PBS containing 2% BSA at 100 μL/well, and centrifuged at 500 g at 4° C. for 5 minutes, and the supernatant was discarded. […] The cells were washed twice by adding pre-chilled PBS containing 2% BSA at 100 μL/well, and centrifuged at 500 g at 4° C. for 5 minutes, and the supernatant was discarded. Finally, the cells were resuspended in pre-chilled PBS containing 2% BSA at 200 μL/well, and the fluorescence signal values were read using a BD CantoII flow cytometer.

Row | EC50 | Maximum MFI | Binder
1 | 0.86 nM | 49200 MFI | B1
2 | 8.19 nM | 22400 MFI | B2
3 | 15.2 nM | 31700 MFI | B3

Molecular target: T1, human CD25
Experiment: flow cytometry, Karpas299 cells
Protocol: as §1

Row | EC50 | Maximum MFI | Binder
4 | 67.2 nM | 32100 MFI | B1
5 | 4.31 nM | 24900 MFI | B2
6 | 65.4 nM | 16200 MFI | B3

Molecular target: T2, cynomolgus monkey CD25
Experiment: flow cytometry, HEK293-cynoCD25 cells
Protocol: as §1

Row | EC50 | Maximum MFI | Binder
7 | 1.63 nM | 82000 MFI | B4
8 | 17.5 nM | 90100 MFI | B5
9 | 6.25 nM | 152000 MFI | B6
10 | 3.92 nM | 151000 MFI | B7
11 | 3.25 nM | 146000 MFI | B8

Molecular target: T1, human CD25
Experiment: flow cytometry, SU-DHL-1 cells
Protocol: as §1

Row | EC50 | Maximum MFI | Binder
12 | 1.53 nM | 43900 MFI | B4
13 | 4.68 nM | 27300 MFI | B5
14 | 8.48 nM | 33700 MFI | B6
15 | 3.51 nM | 34400 MFI | B7
16 | 2.2 nM | 32000 MFI | B8

Molecular target: T1, human CD25
Experiment: flow cytometry, Karpas299 cells
Remark: another data set of the same source
Protocol: as §1

Row | EC50 | Maximum MFI | Binder
17 | 1.21 nM | 18300 MFI | B4
18 | 20.3 nM | 10000 MFI | B5
19 | 40 nM | 9450 MFI | B6
20 | 2.91 nM | 12000 MFI | B7
21 | 2.12 nM | 16400 MFI | B8

Molecular target: T2, cynomolgus monkey CD25
Experiment: flow cytometry, HEK293-cynoCD25 cells
Remark: another data set of the same source
Protocol: as §1

Row | EC50 | Maximum MFI | Binder
22 | 1.75 nM | 189000 MFI | B1
23 | 3.73 nM | 60500 MFI | B2
24 | 4.15 nM | 154000 MFI | B3

Molecular target: T1, human CD25
Experiment: flow cytometry, SU-DHL-1 cells
Remark: another data set of the same source
Protocol: as §1

Row | EC50 | Maximum MFI | Binder
25 | 1.4 nM | 33300 MFI | B1
26 | 4.9 nM | 44300 MFI | B2
27 | 97.6 nM | 19500 MFI | B3
